Test results from US20110274691A1 (Amgen, published 2011).

B1: antibody 37A2 (antibody, V domains shown)
VH: QVQLVESGGGVVQPGRSLRLSCAASGFTFSGYGMHWVRQAPGRGLEWVAVIWPDGTNKYYADSVKGRFTISRDNSKNKLYLQMNSLRAEDTAVYYCARGGATAVFGMNVWGQGTTVTVSS
VL: SYELTQPPSVSVSPGQTARITCSGDELPKQYAYWYQQKAGQAPVMVIHKDSERPSGIPERFSGSSAGTIVTLTISGVQAEDEADYYCQSPDSRRTVIFGGGTKLTVL
B2: antibody 38A4 (antibody, V domains shown)
VH: EVQLLESGGGLVQPGGSLRLSCAASGFTFSSFAMTWVRQAPGKGLEWVSAIGGSGRNTYYADSVKGRFTISRDNSKNTLYLQMSSLRAEDTAVYYCAKEGAMARPPRGLDVWGQGTTVTVSS
VL: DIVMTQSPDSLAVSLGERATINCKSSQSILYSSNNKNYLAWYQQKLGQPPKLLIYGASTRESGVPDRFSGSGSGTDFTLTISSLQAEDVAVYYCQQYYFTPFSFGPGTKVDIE
B3: antibody 38E3 (antibody, V domains shown)
VH: QVQLVQSGAEVKKPGSSVKVSCKASGYTLTGYYMHWVRQAPGQGLEWMGWINPHTGGKNYAQKFQGRVTLTRDTSISTAYMELNSLRSDDTAVYYCARDPSLSVTGPSFYYYGLDVWGQGTTVTVSS
VL: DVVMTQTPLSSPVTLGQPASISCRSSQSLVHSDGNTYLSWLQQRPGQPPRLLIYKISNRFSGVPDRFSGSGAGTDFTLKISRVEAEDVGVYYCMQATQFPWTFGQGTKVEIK
B4: antibody 37B9 (antibody, V domains shown)
VH: QVQLVQSGAEVKKPGSSVKVSCKASGYTLTGYYMHWVRQAPGQGLEWMGWINPHTGGKNYAQRFQGRVTLTRDTSVNTAYMELNTLRSDDTAVYYCARDPSLVVTGPSFYYYGLDVWGQGTTVTVSS
VL: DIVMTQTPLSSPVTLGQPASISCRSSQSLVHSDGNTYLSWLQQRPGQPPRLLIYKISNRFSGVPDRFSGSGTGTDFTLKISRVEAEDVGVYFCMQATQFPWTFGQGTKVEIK
B5: antibody 37G8 (antibody, V domains shown)
VH: QVQLVQSGAEVKKPGSSVKVSCKASGYTLTGYYMHWVRQAPGQGLEWMGWINPHTGGKNYAQKFQGRVTLTRDTSINTAYMELNTLRSDDTAVYYCARDPSLVVTGPSFYYYGLDVWGQGTTVTVSS
VL: DIVMTQTPLSSPVTHGQPASISCRSSQSLVHSDGNTYLSWLQQRPGQPPRLLIYKISNRLSGVPDRFSGSGTGTDFTLKISRVEAEDVGVYVCMQATQFPWTFGQGTKVEIK
B6: antibody 38C8 (antibody, V domains shown)
VH: QVQLVQSGAEVKKPGSSVKVSCKASGYTLTGYYMHWVRQAPGQGLEWMGWINPHTGGKNYGQKFQGRVTLTRDTSINTAYMELNSLRSDDTAVYYCARDPSISVAGPSFYYFGLDVWGQGTTVTVSS
VL: not shown
B7: antibody 37C8 (antibody, V domains shown)
VH: QVQLVQSGAEVKKPGSSVKVSCKASGYTLTGYYMHWVRQAPGQGLEWMGWINPHTGGKNYAQKFQGRVTLTRDTSINTAYMELNTLRSDDTAVYYCARDPSIAVAGPSFYYYGLDVWGQGTTVTVSS
VL: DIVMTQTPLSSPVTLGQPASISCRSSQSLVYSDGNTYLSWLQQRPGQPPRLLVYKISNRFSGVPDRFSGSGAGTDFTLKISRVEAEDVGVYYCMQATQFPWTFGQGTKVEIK
B8: anti-ferroportin antibody 31A5 (antibody, V domains shown)
VH: QVQLQQSGAELARPGASVKLSCKASGYTFTSYGISWVKQRTGQGLEWIGEIYPRSGNAYYNEKFKVKATLTIDKSSSTAYMELRSLTSEDSAVYFCGGNYYWGQGTTLTVSS
VL: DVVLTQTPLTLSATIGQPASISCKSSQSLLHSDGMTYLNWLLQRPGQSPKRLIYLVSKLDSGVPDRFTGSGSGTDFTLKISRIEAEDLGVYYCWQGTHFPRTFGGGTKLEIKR
notes: the ends of the mature chains (466, 239) are printed in CLM-00028; also called monoclonal 31A5; mouse anti-human ferroportin antibody
B9: antibody 38D2 (antibody, V domains shown)
VH: QVQLVQSGAEVKKPGASVKVSCKASGYTLTGYYLHWVRQAPGQELEWMGWINPFTGATDYAQKFQGRVTMTRDTSINTAHMELSRLRSDDTAVYYCARDPSLQNSYHYYVMDVWGQGTTVTVSS
VL: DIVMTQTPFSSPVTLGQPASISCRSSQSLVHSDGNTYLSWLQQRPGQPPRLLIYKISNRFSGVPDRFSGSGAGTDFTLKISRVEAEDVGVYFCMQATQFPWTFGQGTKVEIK
B10: antibody 38G6 (antibody, V domains shown)
VH: EVQVVESGGGLVQPGGSLRLSCAASGFTFSSYSVNWVRQAPGKGLEWVSYISGSSSTVHYADSVKGRFTISRDTAKNSVYLQLNSLRDEDTALYYCARWGTRQGHYFGMDVWGQGTTVTVSS
VL: QPVLTQPPSASASLGASVTLTCTLSSGYNNYKVDWFQQRPGRGPRFVMRVGTGGIVGSKGDGIPDRFSVLGSGLNRYLTIKNIQEEDESDYHCGADHASGNNFVYVFGTGTKVTVL

Legend:
[1] = target: T1, ferroportin fragment SITPTKIPEI (amino acids 417-426 of SEQ ID NO: 16) (human); assay: PepSpot peptide array, 1 ug/mL antibody
T1 construct: PepSpot array of overlapping 10-mers on cellulose membrane
T1 peptide: SITPTKIPEI
Text: (§1) The PepSpot technique (Heiskanen et al., Virology, 262:321-332, 1999) was used to identify the binding epitopes on ferroportin for human antibodies 37A2, 37B9, 37C8, 37G8, 38A4, 38C8, 38D2, 38E3 and 38G6. Briefly, an array of overlapping 10-mer peptides was synthesized on a cellulose membrane by a solid phase peptide synthesis spotting method. These peptide sequences were derived from amino acids 1-571 of SEQ ID NO: 16. The array was then soaked in 0.05% Tween-20/PBS (PBS-T), blocked with 5% BSA in PBS-T for 3 hours at room temperature and subsequently washed three times with PBS-T. The prepared array was then incubated for 90 minutes at room temperature with 1 μg/mL solution of antibodies 37A2, 37B9, 37C8, 37G8, 38A4, 38C8, 38D2, 38E3 or 38G6 in 5% nonfat dry milk. After binding, the membrane was washed three times with PBS-T and subsequently incubated for 1 hour at room temperature with a goat anti-human light chain antibody conjugated to horseradish peroxidase diluted 1:50,000 in 5% nonfat dry milk. The membrane was then washed three times with PBS-T and any binding was determined using chemiluminescence detection on X-ray film.
(§2) Antibodies 37A2, 37B9, 37C8, 37G8, 38A4, 38C8, 38D2, 38E3 and 38G6 bound to epitopes within, overlapping or near loops 1, 2, 3 and 4 of the ferroportin sequence set forth in FIG. 1A.

[2] = target: T2, human ferroportin (human, UniProt Q9NP59 1-571); assay: cell-based or functional assay
T2 sequence: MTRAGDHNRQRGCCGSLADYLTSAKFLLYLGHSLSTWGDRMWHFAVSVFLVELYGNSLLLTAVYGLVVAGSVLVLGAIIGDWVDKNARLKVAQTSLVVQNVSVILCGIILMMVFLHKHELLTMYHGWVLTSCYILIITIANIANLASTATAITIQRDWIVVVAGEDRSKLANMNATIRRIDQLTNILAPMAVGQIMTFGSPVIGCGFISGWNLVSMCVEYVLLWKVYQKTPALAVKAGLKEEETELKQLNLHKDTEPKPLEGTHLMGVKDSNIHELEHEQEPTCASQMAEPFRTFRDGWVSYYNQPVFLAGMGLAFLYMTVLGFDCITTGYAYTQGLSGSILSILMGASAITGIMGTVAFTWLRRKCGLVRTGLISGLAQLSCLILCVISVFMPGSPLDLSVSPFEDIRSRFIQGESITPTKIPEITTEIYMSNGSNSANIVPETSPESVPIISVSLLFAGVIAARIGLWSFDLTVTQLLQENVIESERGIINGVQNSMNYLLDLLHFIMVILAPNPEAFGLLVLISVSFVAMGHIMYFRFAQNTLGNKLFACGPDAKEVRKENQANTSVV

[3] = target: T3, ferroportin-V5 (human, UniProt Q9NP59 1-571); assay: cell-based or functional assay
T3 sequence: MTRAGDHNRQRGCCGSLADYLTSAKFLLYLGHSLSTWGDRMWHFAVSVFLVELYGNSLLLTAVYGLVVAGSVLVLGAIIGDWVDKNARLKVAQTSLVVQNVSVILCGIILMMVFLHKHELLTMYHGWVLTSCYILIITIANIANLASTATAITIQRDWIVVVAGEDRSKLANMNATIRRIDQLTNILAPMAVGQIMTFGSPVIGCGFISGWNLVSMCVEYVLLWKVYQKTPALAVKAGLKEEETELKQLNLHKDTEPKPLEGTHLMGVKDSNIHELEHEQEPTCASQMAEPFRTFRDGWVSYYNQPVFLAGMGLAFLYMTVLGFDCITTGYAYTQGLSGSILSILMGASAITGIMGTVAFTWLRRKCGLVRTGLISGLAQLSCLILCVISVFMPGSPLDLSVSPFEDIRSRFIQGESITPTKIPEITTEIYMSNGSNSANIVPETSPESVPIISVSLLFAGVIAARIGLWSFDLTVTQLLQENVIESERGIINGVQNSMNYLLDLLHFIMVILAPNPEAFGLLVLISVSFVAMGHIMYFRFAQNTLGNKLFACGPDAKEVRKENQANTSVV

[4] = target: T4, ferroportin fragment ITTEIYMSNGSNS (amino acids 426-438 of SEQ ID NO: 16) (human); assay: PepSpot peptide array, 1 ug/mL antibody
T4 construct: Stretch covered by several overlapping 10-mers of the PepSpot array; 13 residues as printed
T4 peptide: ITTEIYMSNGSNS
Text: as §1, §2

[5] = target: T5, ferroportin fragment AFLYMTVLGF (amino acids 315-324 of SEQ ID NO: 16) (human); assay: PepSpot peptide array, 1 ug/mL antibody
T5 construct: PepSpot array of overlapping 10-mers on cellulose membrane
T5 peptide: AFLYMTVLGF
Text: as §1, §2

[6] = target: T6, ferroportin peptide sequence ANIVPETSPES (residues 439-449 of SEQ ID NO: 16) (human); assay: binding to 7-10 amino acid peptides immobilized on cellulose membrane
T6 peptide: ANIVPETSPES
Text: None of the other ferroportin-binding antibodies bound appreciably to this peptide. The location of the 31A5 epitope was further narrowed by detecting binding to ferroportin peptides ranging in length from 7 to 10 amino acids immobilized on a cellulose membrane. […] Cysteine residue 326 of SEQ ID NO: 16 is located in a different extracellular loop from the loop containing the 31A5 epitope (i.e., loop 3 of FIG. 1A).

[7] = target: T7, ferroportin peptide Fc conjugate 5 (Peptide 5: AQNTLGNKLFACGPDAKEVRKENQANTSVV, amino acids 542-571 of SEQ ID … (human)); assay: Western blot of peptide-Fc conjugates
T7 construct: not shown: Fc moiety
T7 chain: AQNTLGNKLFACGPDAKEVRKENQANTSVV
Method: (§3) 31A5 was then tested by Western analysis for its ability to recognize a panel of ferroportin peptide-Fc conjugates, where the peptide moiety was derived from different, non-overlapping regions of the ferroportin sequence. 500 ng of ferroportin peptide Fc conjugates 1-5 (Peptide 1: […], amino acids 75-96 of SEQ ID NO: 16; Peptide 2: […], amino acids 152-183 of SEQ ID NO: 16; Peptide 3: […], amino acids 330-338 of SEQ ID NO: 16; Peptide 4: […], amino acids 393-446 of SEQ ID NO: 16; and Peptide 5: […], amino acids: 542-571 of SEQ ID NO: 16) were run on a NuPAGE 4-12% gel, transferred to a nitrocellulose membrane and probed using […] 31A5 followed by an anti-mouse secondary antibody.

[8] = target: T8, ferroportin peptide Fc conjugate 2 (Peptide 2: ITIQRDWIVVVAGEDRSKLANMNATIRRIDQL, amino acids 152-183 of SEQ … (human)); assay: Western blot of peptide-Fc conjugates
T8 construct: not shown: Fc moiety
T8 chain: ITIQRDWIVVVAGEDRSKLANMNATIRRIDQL
Method: as §3

[9] = target: T9, ferroportin fragment RDGWVSYYNQ (amino acids 296-305 of SEQ ID NO: 16) (human); assay: PepSpot peptide array, 1 ug/mL antibody
T9 construct: PepSpot array of overlapping 10-mers on cellulose membrane
T9 peptide: RDGWVSYYNQ
Text: as §1, §2

[10] = target: T10, ferroportin fragment YHGWVLTSCY (amino acids 124-133 of SEQ ID NO: 16) (human); assay: PepSpot peptide array, 1 ug/mL antibody
T10 construct: PepSpot array of overlapping 10-mers on cellulose membrane
T10 peptide: YHGWVLTSCY
Text: as §1, §2

[11] = target: T11, ferroportin fragment TEIYMSNGSNSA (amino acids 428-439 of SEQ ID NO: 16) (human); assay: PepSpot peptide array, 1 ug/mL antibody
T11 construct: Stretch covered by several overlapping 10-mers of the PepSpot array; 12 residues as printed
T11 peptide: TEIYMSNGSNSA
Text: as §1, §2

Row | Binder | decreased intracellular concentration of iron (IRE beta-lactamase reporter, 293/Fpn/BLA cells, 36 nM hepcidin), IC50 [2] [nM] | preserved ferroportin activity (ferroportin-V5 fluorescence after 37 nM hepcidin), IC50 [3] [nM] | binding result [5] | further results
1 | B1 | 4.5 | 2.5 | – | binding result [1]: binds
2 | B2 | 0.4 | 2.8 | – | binding result [4]: binds
3 | B3 | 15 | – | binds | –
4 | B4 | 3.6 | 0.2 | binds | –
5 | B5 | 1.6 | 0.8 | binds | –
6 | B6 | 0.9 | 0.3 | binds | –
7 | B7 | 0.8 | 0.2 | binds | –
8 | B8 | 30 | – | – | binding result [6]: binds; binding result [7]: no binding; binding result [8]: no binding
9 | B9 | 10 | 5.4 | – | binding result [9]: binds; binding result [10]: binds
10 | B10 | 4.3 | 1.9 | – | binding result [11]: binds
